Results published in patent publication US10017734B2, “Method for producing dopaminergic neurons” (TAKEDA PHARMACEUTICAL COMPANY LIMITED, priority 2013, dated 2018).

Tests used:
[1] = test system: floor plate cells induced from human iPS cell (253G1 strain, 201B7 strain); assay: Study of various MEK inhibitors (including FGFR inhibitor): NURR1 expression by quantitative RT-PCR on day 45; assay type: cell-based; settings: for expression of NURR1: 253G1 strain, added to ascorbic acid and dbcAMP, 3 μM PD0325901, 3 μM PD184352, 10 μM SU5402
Text: Whether midbrain dopaminergic neuron can be induced in a medium containing any of PD184352 (Axon MedChem), SU5402 (FGF receptor (FGFR) inhibitor, Wako Pure Chemical Industries, Ltd.) and PD173074 (FGFR inhibitor, Axon MedChem) instead of PD0325901 in the aforementioned (A) Neuro/B27 was studied.
Floor plate cells were induced by a method similar to the methods described in Reference Examples 1 to 3, the medium was exchanged with Neuro/B27 added with (1) 3 factors of ascorbic acid, dbcAMP and PD0325901, (2) 2 factors of ascorbic acid and dbcAMP, (3) ascorbic acid, dbcAMP and 3 μM PD184352, (4) ascorbic acid, dbcAMP and 10 μM SU5402, or (5) ascorbic acid, dbcAMP and 0.1 μM PD173074 on day 13 of culture, and the cells were cultured at 37° C. under 5% CO2 for not less than 30 days. The medium was exchanged every 3-4 days during the above-mentioned culture periods. On day 45 of culture, the cells were recovered, and expression variation of NURR1 was examined. In 253G1 strain, the expression of NURR1 was elevated by the addition of PD0325901, PD184352 or SU5402 and, in 201B7 strain, the expression of NURR1 was elevated by the addition of all 4 kinds.

[2] = test system: TH/hNuc double positive cells in the mouse striatum; assay: Transplantation of day 26 cells to mouse striatum, tissue staining for TH and hNuc; assay type: in vivo, NOD SCID mice
Protocol: Midbrain floor plate cells were induced by a method similar to the methods described in Reference Examples 1 to 3, the medium was exchanged with Neuro/B27 added with 0.1 mM ascorbic acid, 0.5 mM dbcAMP, 3 μM PD0325901 or 0.1 mM ascorbic acid, 0.5 mM dbcAMP, 3 μM PD0325901, 20 ng/ml activin A on day 12 of culture, and the cells were cultured for 14 days more (total 26 days). After culture, the cells were washed with PBS, and dispersed by treating with TrypLE Express (Life Technologies) at 37° C. for 10 min. The cell concentration was adjusted to 1×10^5 cells/μl with Neuro/B27 medium, and the cells were maintained on ice until transplantation.
A transplantation experiment to mouse striatum was performed as follows. Twelve 8-week-old male NOD SCID mice (Charles River Laboratories Japan, Inc.) were divided into a control group and an activin A group (6 mice per each group). The cells cultured with the addition of ascorbic acid, dbcAMP, PD0325901 were used for transplantation to the control group, and the cells cultured with the addition of ascorbic acid, dbcAMP, PD0325901, activin A were used for transplantation to the activin A group. The hair of the head surgical field of the mice was shaved under pentobarbital (50 mg/kg, ip) anesthesia, and isodine was applied. Several minutes later, the skin was disinfected by wiping off isodine with Menban immersed in 0.1% Osvan aqueous solution, and the mice were fixed on a brain stereotaxis apparatus (David Kopf, David Kopf Instruments in USA). The scalp was incised from the midline, periosteum was detached, and Bregma and Lambda of the mice were exposed. “The mouse brain in stereotaxic coordinates” was referred to for the coordinate of the striatum (AP: +0.5 mm; ML: +1.8 mm), a hole was made in the cranial bone with an electric drill (ϕ0.5 mm), Hamilton syringe was inserted from the surface of the cranial bone to the depth DV: −3.5 mm, and the cells (1×10^5 cells/μl, 2 μl) were transplanted over 10 min After transplantation, the incision on the head was sutured and the mice were allowed to recover. […]

[3] = test system: floor plate cells induced from human iPS cell (253G1 strain, 201B7 strain); assay: TH and NURR1 expression by quantitative RT-PCR on day 26 of culture; assay type: cell-based
Protocol: Floor plate cells were induced by a method similar to the methods described in Reference Examples 1 to 3, the medium was exchanged with Neuro/B27 added with one or more kinds of 0.1 mM ascorbic acid, 0.5 mM dbcAMP, 3 μM PD0325901, and 20 ng/ml activin A (R&D), or Neuro/B27 without addition of ascorbic acid, dbcAMP, PD0325901, and activin A as a control on day 12 of culture, and the cells were cultured for 14 days more (total 26 days). The cells after culture were recovered, and the expression variation of TH and NURR1 was examined by a method similar to Reference Example 3. […] On the other hand, when ascorbic acid, dbcAMP and PD0325901 were added, the expression level was lower at the time point of day 26 of culture than the addition of ascorbic acid, dbcAMP and activin A.

[4] = test system: human iPS cell (253G1 strain, 201B7 strain); assay: Floor plate cell marker expression by quantitative RT-PCR on day 13 of culture; assay type: cell-based; settings: FGF8 added in addition to the 5 kinds (All+FGF8)
Protocol: The medium after preculture as described in the above-mentioned Reference Example 2 was exchanged with a differentiation induction medium containing factors inducing differentiation into floor plate cell (LDN193189 (0.5 μM, Axon MedChem B.V.), SB431542 (10 μM, Wako Pure Chemical Industries, Ltd.), purmorphamine (0.5 μM, Merck), SHH (200 ng/ml, R&D systems) and CHIR99021 (1 μM, Axon MedChem)) (day 0 of culture), and the cells were cultured at 37° C. under 5% CO2 for 5 days. Then, the medium was exchanged with a differentiation induction medium containing 0.5 μM LDN193189 and 1 μM CHIR99021, and the cells were cultured at 37° C. under 5% CO2 for 5-8 days (total 10-13 days). […]
To examine expression variation of floor plate cell marker due to the presence or absence of factors inducing differentiation into floor plate cell (LDN193189, SB431542, purmorphamine, SHH and CHIR99021), the cells on day 13 of culture were recovered, and total RNA fraction was purified using RNeasy (Qiagen). Using PrimeScript RT reagent kit (Takara Bio Inc.), cDNA was synthesized, quantitative RT-PCR was performed, and the gene expression levels of floor plate cell markers FOXA2 and LMX1A were measured. […]

O=C(NOCC1CC1)c1ccc(F)c(F)c1Nc1ccc(I)cc1Cl [PD184352, 2-(2-chloro-4-iodophenylamino)-N-cyclopropylmethoxy-3,4-difluorobenzamide]
expression of NURR1 [1]: elevated

CCCS(=O)(=O)Nc1ccc(F)c(C(=O)c2c[nH]c3ncc(-c4ccc(Cl)cc4)cc23)c1F [PLX4032]
effect on expression of NURR1 ([1]; strain and concentration not given): no effect

Cc1c[nH]c(C=C2C(=O)Nc3ccccc32)c1CCC(=O)O [SU5402, 3-[4-methyl-2-(2-oxo-1,2-dihydro-indol-3-ylidenemethyl)-1H-pyrrol-3-yl]-propanoic acid]
expression of NURR1 [1]: elevated

B1: activin A: peptidic cell proliferation and differentiation factor belonging to the TGFβ family; activator of activin receptor-like kinase-4,7 (protein, UniProt P08476 311-426, looked up)
Inhibin beta A chain: GLECDGKVNICCKKQFFVSFKDIGWNDWIIAPSGYHANYCEGECPSHIAGTSGSSLSFHSTVINHYRMRGHSPFANLKSCCVPTKLRPMSMLYYDDGQNIIKKDIQNMIVEECGCS
modifications: Inhibin beta A chain
TH/hNuc double positive cells ([2]; 4 weeks after transplantation to mouse striatum): not less than 40%
TH/hNuc double positive cells ([2]; 8 weeks after transplantation to mouse striatum): not less than 50%
TH/hNuc double positive cells, change as compared to 8 weeks ([2]; 12 weeks after transplantation to mouse striatum): did not show a remarkable increase
expression of TH and NURR1 ([3]; 20 ng/ml activin A alone): scarcely elevated
expression of TH and NURR1 ([3]; activin A added together with ascorbic acid and dbcAMP): increased remarkably

B2: FGF8: growth factor, fibroblast growth factor-8 (protein, UniProt P55075 23-233, looked up)
Fibroblast growth factor 8: QEGPGRGPALGRELASLFRAGREPQGVSQQHVREQSLVTDQLSRRLIRTYQLYSRTSGKHVQVLANKRINAMAEDGDPFAKLIVETDTFGSRVRVRGAETGLYICMNKKGKLIAKSNGKGKDCVFTEIVLENNYTALQNAKYEGWYMAFTRKGRPRKGSKTRQHQREVHFMKRLPRGHHTTEQSLRFEFLNYPPFTRSLRGSQRTWAPEPR
expression of FOXA2 and LMX1A [4]: scarcely changed
